From patent publication US20230088461A1 (NANJING LEGEND BIOTECH, published 2023)
Positions count from the first letter of the chain named.

B1: LAb19304 (antibody, V domains shown)
VH: QVQLQQSGAELVRPGASVTLSCKASGYTFTAYEMHWVKQTPVHGLEWIGGIDPETGNTAYSQKFKGKATLTADKSSSTAYMEVRSLTSEDSAVYYCSRYYSFAYWGQGTLVTVSA
VL: DVLMTQTPLSLPVSLGDQASISCRSSQTIVHSNGNTYLEWYLQKPGQSPKLLIYKVSNRFSGVPDRFSGSGSGTDFTLKISRVEAEDLGVYYCFQVSHVPYTFGGGTKLEIK
notes: Mouse monoclonal antibody purified from hybridoma supernatant
B2: LAb19309 (antibody, V domains shown)
VH: B1 VH with A31D, S97T
VL: B1 VL with S14N, K79R
notes: as for B1
B3: LAb19305 (antibody, V domains shown)
VH: B1 VH with H43Y, K63N
VL: B1 VL
notes: as for B1
B4: LAb19301 (antibody, V domains shown)
VH: DVQLQESGPDLVKPSQSLSLTCTVTGYSITSGFSWHWIRQFPGHKLEWMGFMQYSGNTNYNPSLKSRISFTRDTSKNQFFLQLKSVTPEDTATYYCARREEGAWFAYWGQGTLVTVSA
VL: DVVMTQTPLSLPVSLGDQASISCGSSQSLVHSNGNTYLHWYLQKPGQSPKLLIYKVSNRFSGVPDRFSGSGSGTDFTLKISRVEAEDLGVYFCSQSTHFPFTFGSGTKLEIK
notes: as for B1
B5: LAb19307 (antibody, V domains shown)
VH: EVQLVESGGDLVKPGGSLKLSCAASGFAFGTYDMSWVRQTPEKRLEWVAYISSGGNSPYYPQTVKGRFTISRDNAKNTLYLQMSSLKSEDTAMYYCARQNIARRGAMDFWGQGASVTVSS
VL: B4 VL with M4L, T7S, L11Q, G24T, V30L, F99V, F101P, S105G
notes: as for B1
B6: LAb19306 (antibody, V domains shown)
VH: EVQLVESGGGLVKPGGSLKLSCAASGFAFSTYDMSWVRQTPERRLEWVAYISSGGATTYYPDSVKGRFTISRDNAKNTLYLQMSSLKSEDTAMYYCARLSLMIRGWFAYWGQGTLVTVSA
VL: B4 VL with G24R, F99V, F101Y, S105G
notes: as for B1
B7: LAb19308 (antibody, V domains shown)
VH: B6 VH with S30I, D33G, R43K, T57N, R98S, L101T, M102L, I103V
VL: B4 VL with G24R, F99V, F101Y, S105G
notes: as for B1
B8: LAb19302 (antibody, V domains shown)
VH: B6 VH with E1A, K13R, D33G, R43T, R98S, L101I
VL: B4 VL with G24R, L51V, F99V, F101Y, S105G
notes: as for B1
B9: LAb19310 (antibody, V domains shown)
VH: EVQLQQSGPELVKPGPSLKISCKASGYSFTVSPMTWVKQSHGKNLEWIGLIHPYNGDTTYNQKFKGKATLTVDKSSSTAYMELLSLTSEDSAVYYCARWGNYYPYAMDYWGQGTSVTVSS
VL: DIVMTQSQKFMSTSVGDRVSITCKASQNVRSTVAWYQQKPGQSPKALIYLTSNRHTGVPDRFTGSGSGTDFTLTISNVQSEDLADYFCLQHWNYPYTFGGGTKLEIK
notes: as for B1
B10: LAb19303 (antibody, V domains shown)
VH: B1 VH with K23E, T30N, A31D, G50A, N57A, S61N, V83L, S91T, S97T
VL: B1 VL with T28S, I29F, E39Q, V96G
notes: as for B1
B11: 9VH1VL3-hIgG1 (antibody, V domains shown)
VH: QVQLVQSGAEVKKPGASVKVSCKASGYTFTDYEMHWVRQAPGQRLEWMGGIDPETGNTAYSQKFKGRVTITRDTSASTAYMELSSLRSEDTAVYYCARYYSFAYWGQGTLVTVSS
VL: DIVMTQSPDSLAVSLGERATINCRSSQTIVHSNGNTYLEWYQQKPGQPPKLLIYKVSNRFSGVPDRFSGSGSGTDFTLTISSLQAEDVAVYYCFQVSHVPYTFGGGTKLEIKR
notes: Humanized LAb19309, full-length human IgG1/kappa; also called 9VH1VL3-hIgG1 mAb
B12: 9VH3VL3-hIgG1 (antibody, V domains shown)
VH: B11 VH with P41T, R44G, I70M, D73N, A76I
VL: B11 VL
notes: Humanized LAb19309, full-length human IgG1/kappa
B13: 9VH3VL2-hIgG1 (antibody, V domains shown)
VH: B11 VH with P41T, R44G, I70M, D73N, A76I
VL: DIVMTQSPLSLPVTPGEPASISCRSSQTIVHSNGNTYLEWYLQKPGQSPQLLIYKVSNRFSGVPDRFSGSGSGTDFTLKISRVEAEDVGVYYCFQVSHVPYTFGGGTKLEIKR
notes: Humanized LAb19309, full-length human IgG1/kappa; also called 9VH3VL2-hIgG1 mAb
B14: Chimeric LAb19309-hIgG1 (antibody, V domains shown)
VH: B1 VH with A31D, S97T
VL: B13 VL with I2V, V3L, S7T, T14N, P15L, E17D, P18Q, Q50K, K79R, V88L
notes: The mouse VH/VL numbers follow the parallel order of the lists, as for LAb19309
B15: 5VH2VL2-hIgG1 (antibody, V domains shown)
VH: B11 VH with D31A, R44G, K63N, I70M, A76T, A79V
VL: B13 VL
notes: Humanized LAb19305, full-length human IgG1/kappa
B16: 5VH2VL3-hIgG1 (antibody, V domains shown)
VH: B11 VH with D31A, R44G, K63N, I70M, A76T, A79V
VL: B11 VL
notes: as for B15
B17: 5VH1VL2-hIgG1 (antibody, V domains shown)
VH: B11 VH with D31A, K63N
VL: B13 VL
notes: as for B15
B18: Chimeric LAb19305-hIgG1 (antibody, V domains shown)
VH: B1 VH with H43Y, K63N
VL: B13 VL with I2V, V3L, S7T, T14S, P15L, E17D, P18Q, Q50K, V88L
notes: The mouse VH/VL numbers follow the parallel order of the lists, as for LAb19305

molecular target: T1, cynomolgus monkey GPC3 on SK-HEP-1-cmGPC3 cells (cynomolgus monkey, UniProt A0A2K5VK50 24-553); test: flow cytometry on SK-HEP-1-cmGPC3 cells, PE anti-mouse IgG Fc; further: test concentration or dose not given here
T1 construct: whole, on cells

| Binder | Positive population, % [%] |
| --- | --- |
| B1 | 94.6 |
| B2 | 91.9 |
| B3 | 94.2 |
| B4 | 18.5 |
| B5 | 11.6 |
| B6 | 3.32 |
| B7 | 9.55 |
| B8 | 12.3 |
| B9 | 22.3 |

molecular target: T2, human GPC3 on SK-HEP-1-huGPC3 cells (human, UniProt P51654 25-554); test: flow cytometry on SK-HEP-1-huGPC3 cells, PE anti-mouse IgG Fc; further: test concentration or dose not given here
T2 construct: whole, on cells

| Binder | Positive population, % [%] |
| --- | --- |
| B1 | 91.9 |
| B2 | 92.7 |
| B3 | 92.6 |
| B4 | 72.6 |
| B5 | 92.9 |
| B6 | 86.2 |
| B7 | 91.4 |
| B8 | 91.5 |
| B9 | 91.3 |

molecular target: T3, mouse GPC3 on SK-HEP-1-muGPC3 cells (mouse, UniProt Q8CFZ4 25-553); test: flow cytometry on SK-HEP-1-muGPC3 cells, PE anti-mouse IgG Fc; further: test concentration or dose not given here
T3 construct: whole, on cells
T3 sequence (Q8CFZ4 25-553 limits assumed): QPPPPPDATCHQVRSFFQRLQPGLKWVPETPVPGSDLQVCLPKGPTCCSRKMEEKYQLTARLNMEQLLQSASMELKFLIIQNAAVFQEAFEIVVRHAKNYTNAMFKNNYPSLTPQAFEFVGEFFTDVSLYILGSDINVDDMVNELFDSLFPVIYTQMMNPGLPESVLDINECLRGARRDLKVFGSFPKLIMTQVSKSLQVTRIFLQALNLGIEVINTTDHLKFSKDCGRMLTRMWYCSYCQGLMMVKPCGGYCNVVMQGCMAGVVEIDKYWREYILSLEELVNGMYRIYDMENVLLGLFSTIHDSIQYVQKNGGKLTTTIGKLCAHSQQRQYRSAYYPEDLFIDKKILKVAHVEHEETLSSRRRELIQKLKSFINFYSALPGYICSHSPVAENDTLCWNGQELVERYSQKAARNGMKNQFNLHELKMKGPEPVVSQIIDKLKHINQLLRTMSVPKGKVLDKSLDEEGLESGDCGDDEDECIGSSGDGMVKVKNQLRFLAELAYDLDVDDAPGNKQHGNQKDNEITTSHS

| Binder | Positive population, % [%] |
| --- | --- |
| B1 | 25.6 |
| B10 | 0.72 |
| B2 | 1.02 |
| B3 | 17 |
| B4 | 17.5 |
| B5 | 83.3 |
| B6 | 75.8 |
| B7 | 82.4 |
| B8 | 81.8 |
| B9 | 83.9 |

molecular target: T4, GPC3 (analyte of Tables 9 and 10) (UniProt P51654 25-559, limits assumed); test: SPR (Biacore T200), purified antibody captured through Fc, GPC3 as analyte, 1:1 model
Description: (§1) Antibodies were immobilized on the sensor chip through Fc capture method. GPC3 was used as the analyte. The surface was regenerated before the injection of another antibody. The process was repeated until all antibodies are analyzed. The off-rates of antibodies were obtained from fitting the experimental data locally to 1:1 interaction model using the Biacore T200 evaluation software. The data of dissociation (kd) and association (ka) rate constants (KD) were calculated from the ration of kd over ka.

| Binder | Kd [nM] | koff [s⁻¹] | kon [M⁻¹ s⁻¹] |
| --- | --- | --- | --- |
| B11 | 1.53 | 0.00014 | 91300 |
| B12 | 1.13 | 0.000145 | 129000 |
| B13 | 0.672 | 9.01e-05 | 134000 |
| B14 | 3.56 | 0.000239 | 67100 |

molecular target: T4, GPC3 (analyte of Tables 9 and 10); test: as above; remark: another data set of the same source
Description: as §1

| Binder | Kd [nM] | koff [s⁻¹] | kon [M⁻¹ s⁻¹] |
| --- | --- | --- | --- |
| B15 | 0.572 | 8.91e-05 | 156000 |
| B16 | 0.544 | 8.76e-05 | 161000 |
| B17 | 1.1 | 0.000117 | 107000 |
| B18 | 0.84 | 0.000103 | 123000 |

molecular target: T5, recombinant human GPC3 (human, UniProt P51654 25-559, limits assumed); test: SPR (Biacore), antibody as ligand, recombinant human GPC3 as analyte, 1:1 Langmuir model
T5 construct: also called hGPC3
Description: The binding kinetics of the antibodies to recombinant human GPC3 were measured by the surface plasmon resonance (SPR) (e.g., Biacore). Binding rate (Kₐ) and dissociation rates (Kd) were calculated using a simple one-to-one Langmuir binding model (Biacore Evaluation Software). The equilibrium dissociation constant (KD) is calculated as the ratio Kd/Kₐ.

| Binder | Kd [nM] | koff [s⁻¹] | kon [M⁻¹ s⁻¹] |
| --- | --- | --- | --- |
| B1 | 5.11 | 0.000138 | 27000 |
| B2 | 8.38 | 0.000195 | 23300 |
| B3 | 4.19 | 0.00013 | 31100 |
| B4 | 122 | 0.00207 | 16900 |
| B5 | 58.7 | 0.00178 | 30200 |
| B6 | 28.4 | 0.00077 | 27100 |
| B7 | 41.4 | 0.00102 | 24700 |
| B8 | 71.2 | 0.00184 | 25800 |
| B9 | 12.6 | 0.000465 | 36900 |
